# Where two headings read alike, the source gives them in different places.
# T1: mouse NKp46 (mouse, UniProt Q8C567 17-325)
# T1 construct: whole, on cells
# T1 sequence (looked up): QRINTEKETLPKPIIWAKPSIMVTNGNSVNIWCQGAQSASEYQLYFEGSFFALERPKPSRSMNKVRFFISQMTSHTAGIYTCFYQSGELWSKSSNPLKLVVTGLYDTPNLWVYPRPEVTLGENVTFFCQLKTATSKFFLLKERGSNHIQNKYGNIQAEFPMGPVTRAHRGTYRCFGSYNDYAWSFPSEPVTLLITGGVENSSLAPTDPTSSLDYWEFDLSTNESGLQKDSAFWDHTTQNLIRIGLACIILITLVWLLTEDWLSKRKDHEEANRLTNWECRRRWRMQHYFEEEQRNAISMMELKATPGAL
# B1: NKp46-hz5D7v15-Fc* (Fc fusion)
# chain: EVQLVESGGGEVQPGGSLRLSCAASGRTFASAAMGWFRQAPGKEREFVAAISRSDDTYYAESVKGRFTISRDNAKNTVYLQMSSLRAEDTAVYYCAAVVPTYGNAIYVHSAAYNYWGQGTLVTVKPGGGGPSVFLFPPKPKDTLMISRTPEVTCVVVDVSHEDPEVKFNWYVDGVEVHNAKTKPREEQYNSTYRVVSVLTVLHQDWLNGKEYKCKVSNKALPAPIEKTISKAKGQPREPQVYTLPPSRDELTKNQVSLTCLVKGFYPSDIAVEWESNGQPENNYKTTPPVLDSDGSFFLYSKLTVDKSRWQQGNVFSCSVMHEALHNHYTQKSLSLSPG
# notes: VHH-Fc fusion with an IgG1 Fc lacking a hinge (Fc*)
# B2: NKp46-hz5D7v17-Fc (Fc fusion)
# chain: EVQLVESGGGEVQPGGSLRLSCAASGRTFASAAMGWFRQAPGKEREFVAAISRSDDTYYAESVKGRFTISRDNAKNTVYLQMSSLRAEDTAVYYCAAVVPTYGSNIYVHSAAYNYWGQGTLVTVRPDKTHTCPPCPAPGGPSVFLFPPKPKDTLMISRTPEVTCVVVDVSHEDPEVKFNWYVDGVEVHNAKTKPREEQYNSTYRVVSVLTVLHQDWLNGKEYKCKVSNKALPAPIEKTISKAKGQPREPQVYTLPPSRDELTKNQVSLTCLVKGFYPSDIAVEWESNGQPENNYKTTPPVLDSDGSFFLYSKLTVDKSRWQQGNVFSCSVMHEALHNHYTQKSLSLSPG
# B3: hz5D7v12-Fc xELL-Hole; and hz5D7v12-Fc xELL-Knob-IL2-T3A-H16A-E61R-P65R-D84Y-C125S (cx10454) (Fc fusion)
# chain 1: EVQLVESGGGEVQPGGSLRLSCAASGRTFASAAMGWFRQAPGKEREFVAAISRSDDTYYAESVKGRFTISRDNAKNTVYLQMSSLRAEDTAVYYCAAVVPTYGSNIYVHSAAYNYWGQGTLVTVKPGGGGDKTHTCPPCPAPGGPSVFLFPPKPKDTLMISRTPEVTCVVVDVSHEDPEVKFNWYVDGVEVHNAKTKPREEQYNSTYRVVSVLTVLHQDWLNGKEYKCKVSNKALPAPIEKTISKAKGQPREPQVYTLPPCRDELTKNQVSLWCLVKGFYPSDIAVEWESNGQPENNYKTTPPVLDSDGSFFLYSKLTVDKSRWQQGNVFSCSVMHEALHNHYTQKSLSLSPGGSGGSAPASSSTKKTQLQLEALLLDLQMILNGINNYKNPKLTRMLTFKFYMPKKATELKHLQCLERELKRLEEVLNLAQSKNFHLRPRYLISNINVIVLELKGSETTFMCEYADETATIVEFLNRWITFSQSIISTLT
# chain 2: EVQLVESGGGEVQPGGSLRLSCAASGRTFASAAMGWFRQAPGKEREFVAAISRSDDTYYAESVKGRFTISRDNAKNTVYLQMSSLRAEDTAVYYCAAVVPTYGSNIYVHSAAYNYWGQGTLVTVKPGGGGDKTHTCPPCPAPGGPSVFLFPPKPKDTLMISRTPEVTCVVVDVSHEDPEVKFNWYVDGVEVHNAKTKPREEQYNSTYRVVSVLTVLHQDWLNGKEYKCKVSNKALPAPIEKTISKAKGQPREPQVCTLPPSRDELTKNQVSLSCAVKGFYPSDIAVEWESNGQPENNYKTTPPVLDSDGSFFLVSKLTVDKSRWQQGNVFSCSVMHEALHNRYTQKSLSLSPG
# B4: hz5D7v17-Fc xELL-Hole; and hz5D7v17-Fc xELL-Knob-IL2-T3A-H16A-E61R-P65R-D84Y-C125S (cx11314) (Fc fusion)
# chain 1: EVQLVESGGGEVQPGGSLRLSCAASGRTFASAAMGWFRQAPGKEREFVAAISRSDDTYYAESVKGRFTISRDNAKNTVYLQMSSLRAEDTAVYYCAAVVPTYGSNIYVHSAAYNYWGQGTLVTVRPGGGGDKTHTCPPCPAPGGPSVFLFPPKPKDTLMISRTPEVTCVVVDVSHEDPEVKFNWYVDGVEVHNAKTKPREEQYNSTYRVVSVLTVLHQDWLNGKEYKCKVSNKALPAPIEKTISKAKGQPREPQVYTLPPCRDELTKNQVSLWCLVKGFYPSDIAVEWESNGQPENNYKTTPPVLDSDGSFFLYSKLTVDKSRWQQGNVFSCSVMHEALHNHYTQKSLSLSPGGSGGSAPASSSTKKTQLQLEALLLDLQMILNGINNYKNPKLTRMLTFKFYMPKKATELKHLQCLERELKRLEEVLNLAQSKNFHLRPRYLISNINVIVLELKGSETTFMCEYADETATIVEFLNRWITFSQSIISTLT
# chain 2: EVQLVESGGGEVQPGGSLRLSCAASGRTFASAAMGWFRQAPGKEREFVAAISRSDDTYYAESVKGRFTISRDNAKNTVYLQMSSLRAEDTAVYYCAAVVPTYGSNIYVHSAAYNYWGQGTLVTVRPGGGGDKTHTCPPCPAPGGPSVFLFPPKPKDTLMISRTPEVTCVVVDVSHEDPEVKFNWYVDGVEVHNAKTKPREEQYNSTYRVVSVLTVLHQDWLNGKEYKCKVSNKALPAPIEKTISKAKGQPREPQVCTLPPSRDELTKNQVSLSCAVKGFYPSDIAVEWESNGQPENNYKTTPPVLDSDGSFFLVSKLTVDKSRWQQGNVFSCSVMHEALHNRYTQKSLSLSPGK
# Assays:
# [1] = target: T1, mouse NKp46; assay: flow cytometry, HEK293F cells transfected with mouse NKp46
# Procedure: (§1) Binding of NKp46-binding polypeptides formatted as VHH-Fc fusion proteins was assessed by flow cytometry. An IgG1-Fc lacking a hinge, or a homodimeric Fc (FIG. 1I-1J) was used (the Fc lacking a hinge is annotated as Fc*). HEK293F cells were transiently transfected with a plasmid encoding full-length human NKp46, cynomolgus NKp46, or mouse NKp46, followed by an IRES and GFP. Transfected cells expressing NKp46 and GFP were used to measure binding of the polypeptides. The transfected cells were plated in a 96-well plate at 30,000 cells per well in FACS buffer (PBS, 1% BSA, 0.1% NaN₃, pH 7.4). Untransfected HEK293F cells were used as a NKp46-negative control and plated at 30,000 cells per well in a separate plate. Test polypeptides were then diluted to two times the final concentration of 1000 nM, and a 3-, 4-, or 5-fold, serial dilution was made. A final column was left with only FACS buffer as a secondary-only control. Test article dilutions were added to an equal volume of cells, and assay plates were incubated for 30 minutes at 4° C. After washing twice with 150 μL. of FACS buffer per well, the cells were resuspended in FACS buffer with α-hFc-647 secondary diluted 1:1000-2000. Assay plates were then left to incubate at 4° C. for 20-30 minutes. After one additional wash with 150 μL of FACS buffer, bound antibody was detected by flow cytometry. Flow cytometric detection was performed on an Intellicyt iQue Plus or Accuri iQue. NKp46 transfected cells were gated on as GFP positive, and polypeptide binding was measured as median fluorescence at 647 nm.
# [2] = target: T2, cynomolgus NKp46 (cynomolgus monkey, UniProt Q95JB9 22-306); assay: flow cytometry, HEK293F cells transfected with cyno NKp46
# T2 construct: also called cyno NKp46; cynomolgus monkey NKp46
# Procedure: as §1
# [3] = target: T3, human NKp46 (human, UniProt O76036 22-304); assay: flow cytometry, HEK293F cells transfected with human NKp46
# T3 construct: also called CD335; NCR1
# Procedure: as §1
# [4] = target: T3, human NKp46; assay: flow cytometry on HEK-293F cells transfected with full-length human NKp46, bivalent VHH with homodimeric Fc, anti-hFc-647 secondary
# Procedure: as §1, with “After washing twice with 150 μL. of FACS buffer per well, the cells were resuspended in FACS buffer with α-hFc-647 secondary diluted 1:1000-2000. Assay plates were then left to incubate at 4° C. for 20-30 minutes.” left out, “Flow cytometric detection was performed on an Intellicyt iQue Plus or Accuri iQue.” left out
# [5] = target: T3, human NKp46; assay: flow cytometry, HEK293F cells transfected with human NKp46; remark: listed apart in the source
# Procedure: as §1
# [6] = target: IL-2 receptor (human); assay: cell-based or functional assay
# T3 sequence (O76036 22-304 Q82K): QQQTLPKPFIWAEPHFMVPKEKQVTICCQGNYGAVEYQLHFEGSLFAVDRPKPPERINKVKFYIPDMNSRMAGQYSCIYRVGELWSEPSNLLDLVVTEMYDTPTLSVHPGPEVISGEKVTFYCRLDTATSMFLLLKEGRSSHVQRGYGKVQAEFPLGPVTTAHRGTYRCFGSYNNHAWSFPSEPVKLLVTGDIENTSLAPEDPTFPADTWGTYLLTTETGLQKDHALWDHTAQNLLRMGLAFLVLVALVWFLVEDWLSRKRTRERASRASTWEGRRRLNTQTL
# T2 sequence (Q95JB9 22-306 limits assumed): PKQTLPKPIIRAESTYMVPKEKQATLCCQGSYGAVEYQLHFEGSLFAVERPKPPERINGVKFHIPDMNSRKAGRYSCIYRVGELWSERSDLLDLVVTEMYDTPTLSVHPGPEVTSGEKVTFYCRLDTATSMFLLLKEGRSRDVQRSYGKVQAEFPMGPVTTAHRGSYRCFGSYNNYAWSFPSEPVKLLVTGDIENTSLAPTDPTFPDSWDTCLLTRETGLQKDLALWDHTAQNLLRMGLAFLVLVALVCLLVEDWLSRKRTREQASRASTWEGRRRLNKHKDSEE
binder,measurement,setting,value
B1,Bmax (MFI),[1],34300 MFI
same,Kd,[1],0.729 nM
same,Bmax (MFI),[2],16400 MFI
same,Kd,[2],0.428 nM
same,Bmax (MFI),[3],143000 MFI
same,Kd,[3],0.237 nM
B2,EC50 (read off the curve),[4],~0.3 nM
same,Kd,[5],0.295 nM
B3,pSTAT5 EC50 on CD56brightCD16- NK cells,[6],< 80 pM
same,pSTAT5 EC50 on CD56dimCD16+ NK cells and total NK cells,[6],< 0.4 nM
B4,pSTAT5 EC50 on CD56brightCD16- NK cells,[6],< 80 pM
same,pSTAT5 EC50 on CD56dimCD16+ NK cells and total NK cells,[6],< 0.4 nM
